Source: patent US20210261685A1 (Alector, published 2021)

Columns and labels:
[1] = target: T1, murine MerTK extracellular domain (ECD), recombinant (mouse, UniProt Q60805 19-497); experiment: SPR, Carterra LSA, antibody immobilised
T1 construct: also called moMerTK; mouse MerTK; not shown: polyHis tag or TEVS/Thrombin/murine IgG2a Fc tag
T1 sequence: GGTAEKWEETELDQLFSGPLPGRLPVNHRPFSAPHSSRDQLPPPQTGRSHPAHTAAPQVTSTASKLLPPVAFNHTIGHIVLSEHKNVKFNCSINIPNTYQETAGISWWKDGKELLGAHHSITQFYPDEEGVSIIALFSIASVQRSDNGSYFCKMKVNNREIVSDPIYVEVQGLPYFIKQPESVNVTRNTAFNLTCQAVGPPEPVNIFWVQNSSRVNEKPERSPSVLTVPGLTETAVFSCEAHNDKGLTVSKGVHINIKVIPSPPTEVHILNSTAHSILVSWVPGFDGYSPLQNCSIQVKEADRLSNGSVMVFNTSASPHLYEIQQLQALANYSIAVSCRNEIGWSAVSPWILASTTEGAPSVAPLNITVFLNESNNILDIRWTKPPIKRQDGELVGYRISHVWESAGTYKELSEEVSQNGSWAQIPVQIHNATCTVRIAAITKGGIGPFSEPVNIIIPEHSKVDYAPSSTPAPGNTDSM
Description: (§1) Binding kinetics of human anti-MerTK IgG1 LALAPS antibodies of the present disclosure to human, cyno, and murine MerTK were evaluated using a Carterra LSA instrument (Carterra, Salt Lake City, Utah). Briefly, anti-MerTK antibodies were prepared by diluting to 10 μg/ml in 10 mM Acetate, pH 4.25 (Carterra), at 300 μl/well. A HC200M sensor chip (Carterra) was activated using the single channel flow cell with a 7-minute injection of a 1:1:1 mixture of 100 mM MES pH 5.5, 100 mM sulfo-NHS, 400 mM EDC (all reconstituted in MES pH 5.5; 100 μl of each mixed in vial immediately before running assay). After switching to the multi-channel array flow cell, the antibodies were injected over the activated chip in a 96-spot array for 15 minutes. The remaining unconjugated active groups on the chip were then blocked by injecting 1M Ethanolamine pH 8.5 (Carterra) for 7 minutes using the single channel flow cell.
(§2) After priming with running buffer (HBS-TE, Carterra) with 0.5 mg/ml BSA (Sigma), the immobilized anti-MerTK antibodies were tested for their ability to bind to several forms of recombinant MerTK extracellular domain, including human, cynomolgus, and mouse orthologs as described above. Estimates of affinity were generated by injecting each analyte over the entire antibody array using the single channel flow cell. MerTK analytes were diluted to 33.3, 100, and 300 nM in running buffer, and injected in serial from lowest to highest concentration without regeneration. Two buffer blanks were run between each series (one species per series). Data were processed and analyzed using NextGenKIT high-throughput kinetics analysis software (Carterra).
(§3) The equilibrium dissociation constants (KD) were then calculated from the fitted association and dissociation rate constants (k-on and k-off) for anti-MerTK antibodies of the present disclosure. Binding kinetic analysis was also performed on anti-MerTK antibodies H1 (BioLegend, Clone ID: 590H11G1E3), H2 (R&D systems, Clone ID: 125518), M6 (WO2016/106221), and CDX AB2000-A7 hIgG1 (WO2019/084307).

[2] = target: T2, human MerTK extracellular domain (ECD), recombinant (human, UniProt Q12866 21-505); experiment: SPR, Carterra LSA, antibody immobilised
T2 construct: also called huMerTK; not shown: polyHis tag or TEVS/Thrombin/murine IgG2a Fc tag
T2 sequence: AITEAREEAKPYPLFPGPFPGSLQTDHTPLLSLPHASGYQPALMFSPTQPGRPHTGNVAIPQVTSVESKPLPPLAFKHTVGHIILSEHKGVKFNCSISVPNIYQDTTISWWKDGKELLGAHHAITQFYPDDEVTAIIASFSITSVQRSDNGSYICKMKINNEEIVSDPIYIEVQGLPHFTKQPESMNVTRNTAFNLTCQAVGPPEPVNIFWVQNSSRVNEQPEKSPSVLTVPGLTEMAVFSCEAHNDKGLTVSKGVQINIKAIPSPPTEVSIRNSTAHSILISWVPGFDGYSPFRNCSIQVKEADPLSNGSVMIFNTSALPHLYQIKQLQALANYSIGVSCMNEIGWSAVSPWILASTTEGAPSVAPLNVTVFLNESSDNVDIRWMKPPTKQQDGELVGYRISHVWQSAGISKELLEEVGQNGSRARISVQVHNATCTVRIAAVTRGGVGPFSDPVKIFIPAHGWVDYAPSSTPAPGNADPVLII
Description: as §1, §2, §3

[3] = target: T3, human Axl ECD construct (Full Axl) with linker+His+Avi tag (human, UniProt P30530 26-451); experiment: SPR, Carterra LSA, antibody immobilised, construct supernatant injected
T3 construct: tested as Expi293 supernatant; also called ECD domain of human Axl
T3 sequence: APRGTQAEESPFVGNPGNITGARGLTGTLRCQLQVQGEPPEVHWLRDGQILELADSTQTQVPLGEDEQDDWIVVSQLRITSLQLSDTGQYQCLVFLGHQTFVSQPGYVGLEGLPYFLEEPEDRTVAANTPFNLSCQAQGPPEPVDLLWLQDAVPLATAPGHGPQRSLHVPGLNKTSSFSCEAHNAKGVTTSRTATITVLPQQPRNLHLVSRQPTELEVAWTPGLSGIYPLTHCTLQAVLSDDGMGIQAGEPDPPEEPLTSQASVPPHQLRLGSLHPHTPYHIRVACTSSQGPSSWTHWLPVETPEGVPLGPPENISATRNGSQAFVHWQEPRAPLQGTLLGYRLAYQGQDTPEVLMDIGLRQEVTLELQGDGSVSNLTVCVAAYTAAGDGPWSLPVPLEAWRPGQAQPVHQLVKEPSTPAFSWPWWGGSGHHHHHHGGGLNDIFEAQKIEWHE
Description: Binding of anti-MerTK antibodies of the present disclosure to these domain-swapped chimera or deletion mutants (prepared as described above) was tested by Surface Plasmon Resonance (SPR) using Carterra LSA. Purified anti-MerTK antibodies were immobilized in duplicate on a HC30M chip (Carterra) by amine coupling, following the manufacturer's instructions (described previously). Supernatants containing the constructs were diluted 1:1 with running buffer containing 0.5 mg/mL BSA (HBS-TE, Carterra) and injected over the immobilized antibodies. The surface was regenerated with 10 mM Glycine pH2.0 after each construct injection. Sensorgrams were analyzed using Carterra Epitope software to identify patterns of construct binding. Loss of binding to MerTK constructs with domains deleted or swapped in from Axl and/or gain of binding to Axl constructs with MerTK domains swapped in were evaluated. Data from these studies was used to construct a domain binding map for anti-MerTK antibodies and their binding to various domains of human MerTK.

[4] = target: T4, cyno MerTK extracellular domain (ECD), recombinant (cynomolgus monkey, UniProt Q12866 21-505 (human entry)); experiment: SPR, Carterra LSA, antibody immobilised; LB = Low binding
T4 construct: also called cynomolgus MerTK; not shown: polyHis tag or TEVS/Thrombin/murine IgG2a Fc tag
T4 chain: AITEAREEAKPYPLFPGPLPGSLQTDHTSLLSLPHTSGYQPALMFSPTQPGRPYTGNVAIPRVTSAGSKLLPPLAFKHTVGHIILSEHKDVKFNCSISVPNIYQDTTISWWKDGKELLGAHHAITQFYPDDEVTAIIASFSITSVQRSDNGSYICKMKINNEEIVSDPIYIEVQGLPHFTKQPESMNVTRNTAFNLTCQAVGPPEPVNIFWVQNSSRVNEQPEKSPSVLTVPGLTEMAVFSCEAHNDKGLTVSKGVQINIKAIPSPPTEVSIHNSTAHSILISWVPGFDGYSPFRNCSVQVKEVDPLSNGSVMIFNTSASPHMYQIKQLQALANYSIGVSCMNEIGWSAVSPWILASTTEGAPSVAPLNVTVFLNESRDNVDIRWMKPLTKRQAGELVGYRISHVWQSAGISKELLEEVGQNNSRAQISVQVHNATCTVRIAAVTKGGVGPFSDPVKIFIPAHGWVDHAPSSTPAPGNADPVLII
Description: as §1
After priming with running buffer (HBS-TE, Carterra) with 0.5 mg/ml BSA (Sigma), the immobilized anti-MerTK antibodies were tested for their ability to bind to several forms of recombinant MerTK extracellular domain, including human, cynomolgus, and mouse orthologs as described above. […] Data were processed and analyzed using NextGenKIT high-throughput kinetics analysis software (Carterra).

B1: MTK-22 (antibody, human IgG1, V domains shown)
VH: QVQLQQPGADLVEPGASVKLSCKASGYTFTSYWMHWVKQRPGQGLEWIGEIDPSDSSSNYNQKFKGKATLTVDKSSSTAYMHLNSLTSEDSAVYYCARRYYYGSLYFDNWGQGTTLTVSS
VL: DVVMTQSHKFMSTSVGDRVSITCKASQDVGTAIAWYQQKPGQSPKLLIYWASTRHTGVPDRFTGSRSGTVFTLTISNVQSEDLADYFCQQYTSYPLTFGSGTKLEIK
Which results are given for B1?
binding result [1]: no binding (tested: 300 nM); Kd [2]: 54 nM; binding result [3]: no binding; binding result [4]: binds
